B1: AsHPPDm-F372A-02: Avena sativa HPPD mutant F372A, SEQ ID NO: 4; gene SEQ ID NO: 6 (protein)
chain: MPPTPATATGAAAAAVTPEHAARSFPRVVRVNPRSDRFPVLSFHHVELWCADAASAAGRFSFALGAPLAARSDLSTGNSAHASLLLRSGALAFLFTAPYAPPPQEAATAAATASIPSFSADAARTFAAAHGLAVRSVGVRVADAAEAFRVSVAGGARPAFAPADLGHGFGLAEVELYGDVVLRFVSYPDETDLPFLPGFERVSSPGAVDYGLTRFDHVVGNVPEMAPVIDYMKGFLGFHEFAEFTAEDVGTTESGLNSVVLANNSEAVLLPLNEPVHGTKRRSQIQTYLEYHGGPGVQHIALASNDVLRTLREMRARTPMGGFEFMAPPQAKYYEGVRRIAGDVLSEEQIKECQELGVLVDRDDQGVLLQIATKPVGDRPTFFLEMIQRIGCMEKDEVGQEYQKGGCGGFGKGNFSELFKSIEDYEKSLEVKQSVVAQKS
modifications: AsHPPDm-F372A Amido Acid Sequence
B2: ZmHPPDm-F372A-02: Zea mays HPPD mutant F372A, SEQ ID NO: 20 (protein)
chain: MPPTPTAAAAGAAVAAASAAEQAAFRLVGHRNFVRFNPRSDRFHTLAFHHVELWCADAASAAGRFSFGLGAPLAARSDLSTGNSAHASLLLRSGSLSFLFTAPYAHGADAATAALPSFSAAAARRFAADHGLAVRAVALRVADAEEAFRTSVAAGARPAFGPVDLGRGFRLAEVELYGDVVLRYVSYPDGAAGEPFLPGFEGVASPGAADYGLSRFDHIVGNVPELAPAAAYFAGFTGFHEFAEFTTEDVGTAESGLNSMVLANNSENVLLPLNEPVHGTKRRSQIQTFLDHHGGPGVQHMALASDDVLRTLREMQARSAMGGFEFMAPPTSDYYDGVRRRAGDVLTEAQIKECQELGVLVDRDDQGVLLQIAPKPVGDRPTLFLEIIQRIGCMERDEKGQEYQKGGCGGFGKGNFSQLFKSIEDYEKSLEAMQAAAAATAQGS
modifications: ZmHPPDm-F372A Amino Acid Sequence
B3: PfHPPDm-F372A-02: Pseudomonas fluorescens HPPD mutant F372A, SEQ ID NO: 30 (protein)
chain: MADLYENPMGLMGFEFIEFASPTPGTLEPIFEIMGFTKVATHRSKNVHLYRQGEINLILNNEPNSIASYFAAEHGPSVCGMAFRVKDSQKAYNRALELGAQPIHIDTGPMELNLPAIKGIGGAPLYLIDRFGEGSSIYDIDFVYLEGVERNPVGAGLKVIDHLTHNVYRGRMVYWANFYEKLFNFREARYFDIKGEYTGLTSKAMSAPDGMIRIPLNEESSKGAGQIEEFLMQFNGEGIQHVAFLTDDLVKTWDALKKIGMRFMTAPPDTYYEMLEGRLPDHGEPVDQLQARGILLDGSSVEGDKRLLLQIASETLMGPVFFEFIQRKGDDGFGEGNFKALFESIERDQVRRGVLTAD
modifications: PfHPPDm-F372A Amino Acid Sequence
B4: AsHPPDm-F372A-A110: Avena sativa HPPD with F372A and deletion of alanine at position 110, SEQ ID NO: 412 (protein)
chain: MPPTPATATGAAAAAVTPEHAARSFPRVVRVNPRSDRFPVLSFHHVELWCADAASAAGRFSFALGAPLAARSDLSTGNSAHASLLLRSGALAFLFTAPYAPPPQEAATAATASIPSFSADAARTFAAAHGLAVRSVGVRVADAAEAFRVSVAGGARPAFAPADLGHGFGLAEVELYGDVVLRFVSYPDETDLPFLPGFERVSSPGAVDYGLTRFDHVVGNVPEMAPVIDYMKGFLGFHEFAEFTAEDVGTTESGLNSVVLANNSEAVLLPLNEPVHGTKRRSQIQTYLEYHGGPGVQHIALASNDVLRTLREMRARTPMGGFEFMAPPQAKYYEGVRRIAGDVLSEEQIKECQELGVLVDRDDQGVLLQIATKPVGDRPTFFLEMIQRIGCMEKDEVGQEYQKGGCGGFGKGNFSELFKSIEDYEKSLEVKQSVVAQKS
modifications: AsHPPDm-F372A-A110 Amino Acid Sequence

System: Arabidopsis thaliana T1 plants
Assay: Topramezone tolerance of transgenic Arabidopsis thaliana T1 plants (pesticide damage grade by bleached leaf area, score, resistance evaluation)
Assay type: in vivo
Settings: for Classification and statistics of the grade of pesticide damage Grade 0 / Classification and statistics of the grade of pesticide damage Grade 1 / Classification and statistics of the grade of pesticide damage Grade 2 / Classification and statistics of the grade of pesticide damage Grade 3 / Classification and statistics of pesticide damage grade Grade 0 / Classification and statistics of pesticide damage grade Grade 1 / Classification and statistics of pesticide damage grade Grade 2 / Classification and statistics of pesticide damage grade Grade 3: number of plants (of 16) in this grade; for Classification and statistics of the grade of pesticide damage Grade 0 / Classification and statistics of the grade of pesticide damage Grade 1 / Classification and statistics of the grade of pesticide damage Grade 2 / Classification and statistics of the grade of pesticide damage Grade 3 / Scores / Resistance evaluation / Classification and statistics of pesticide damage grade Grade 0 / Classification and statistics of pesticide damage grade Grade 1 / Classification and statistics of pesticide damage grade Grade 2 / Classification and statistics of pesticide damage grade Grade 3: 7 DAT; for Scores: score for pesticide damage 0-100; for Grade 0 (number of plants) / Grade 1 (number of plants) / Grade 2 (number of plants) / Grade 3 (number of plants) / Resistance Grade / score: mutation combination, Table 8
How it was run: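 Eighteen days after sowing, wild-type and HPPD-transgenic T1 Arabidopsis receive a topramezone spray at 1×, 2× or 4× field rate (25–100 g ai/ha) or water. Seven days later each plant is graded by its proportion of bleached leaf area.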

[1] = HPPDs from different species, topramezone 25 g ai/ha (1x)
[2] = HPPDs from different species, topramezone 100 g ai/ha (4x)

Row | Molecule | Grade 0 (number of plants) (topramezone 25 g ai/ha) | Grade 1 (number of plants) (topramezone 25 g ai/ha) | Grade 2 (number of plants) (topramezone 25 g ai/ha) | Grade 3 (number of plants) (topramezone 25 g ai/ha) | Resistance Grade (topramezone 25 g ai/ha) | score (topramezone 25 g ai/ha) | Grade 0 (number of plants) (topramezone 100 g ai/ha) | Grade 1 (number of plants) (topramezone 100 g ai/ha) | Grade 2 (number of plants) (topramezone 100 g ai/ha) | Grade 3 (number of plants) (topramezone 100 g ai/ha) | Resistance Grade (topramezone 100 g ai/ha) | score (topramezone 100 g ai/ha) | Classification and statistics of pesticide damage grade Grade 0 [1] | Classification and statistics of pesticide damage grade Grade 1 [1] | Classification and statistics of pesticide damage grade Grade 2 [1] | Classification and statistics of pesticide damage grade Grade 3 [1] | Classification and statistics of pesticide damage grade Grade 0 [2] | Classification and statistics of pesticide damage grade Grade 1 [2] | Classification and statistics of pesticide damage grade Grade 2 [2] | Classification and statistics of pesticide damage grade Grade 3 [2] | other results
1 | B1 | 20 | 0 | 0 | 0 | Highly resistant | 0 | 20 | 0 | 0 | 0 | Highly resistant | 0 | – | – | – | – | – | – | – | – | resistance evaluation stated in the text (Arabidopsis thaliana T1 plants sprayed with topramezone, all tested concentrations): highly resistant (highly resistant plants (scores 0-15)); Classification and statistics of the grade of pesticide damage Grade 0 (topramezone 25 g ai/ha (1x)): 16; Classification and statistics of the grade of pesticide damage Grade 1 (topramezone 25 g ai/ha (1x)): 0; Classification and statistics of the grade of pesticide damage Grade 2 (topramezone 25 g ai/ha (1x)): 0; Classification and statistics of the grade of pesticide damage Grade 3 (topramezone 25 g ai/ha (1x)): 0; Classification and statistics of the grade of pesticide damage Grade 0 (topramezone 50 g ai/ha (2x)): 16; Classification and statistics of the grade of pesticide damage Grade 1 (topramezone 50 g ai/ha (2x)): 0; Classification and statistics of the grade of pesticide damage Grade 2 (topramezone 50 g ai/ha (2x)): 0; Classification and statistics of the grade of pesticide damage Grade 3 (topramezone 50 g ai/ha (2x)): 0; Classification and statistics of the grade of pesticide damage Grade 0 (topramezone 100 g ai/ha (4x)): 16; Classification and statistics of the grade of pesticide damage Grade 1 (topramezone 100 g ai/ha (4x)): 0; Classification and statistics of the grade of pesticide damage Grade 2 (topramezone 100 g ai/ha (4x)): 0; Classification and statistics of the grade of pesticide damage Grade 3 (topramezone 100 g ai/ha (4x)): 0; Scores (topramezone 25 g ai/ha (1x)): 0; Scores (topramezone 50 g ai/ha (2x)): 0; Scores (topramezone 100 g ai/ha (4x)): 0; Resistance evaluation (topramezone 25 g ai/ha (1x)): highly resistant (highly resistant plants (scores 0-15)); Resistance evaluation (topramezone 50 g ai/ha (2x)): highly resistant (highly resistant plants (scores 0-15)); Resistance evaluation (topramezone 100 g ai/ha (4x)): highly resistant (highly resistant plants (scores 0-15))
2 | B2 | – | – | – | – | – | – | – | – | – | – | – | – | 16 | 0 | 0 | 0 | 4 | 12 | 0 | 0 | Scores [1]: 0; Scores [2]: 25; Resistance evaluation [1]: highly resistant (highly resistant plants (scores 0-15)); Resistance evaluation [2]: moderately resistant (moderately resistant plants (scores 16-33))
3 | B3 | 20 | 0 | 0 | 0 | Highly resistant | 0 | 16 | 4 | 0 | 0 | Highly resistant | 7 | 16 | 0 | 0 | 0 | 12 | 4 | 0 | 0 | Scores [1]: 0; Scores [2]: 8; Resistance evaluation [1]: highly resistant (highly resistant plants (scores 0-15)); Resistance evaluation [2]: highly resistant (highly resistant plants (scores 0-15))
4 | B4 | 20 | 0 | 0 | 0 | Highly resistant | 0 | 20 | 0 | 0 | 0 | Highly resistant | 0 | – | – | – | – | – | – | – | – | –

Reference: US20230212587A1, “Mutant Hydroxyphenylpyruvate Dioxygenase Polypeptide, Encoding Gene Thereof and Use Therefor” (Beijing Dabeinong Biotechnology Co., Ltd., priority 2019, published 2023)
